From patent US20080199467A1 (TRANSTECH PHARMA, published 2008)
Values belong to the binder of their own block, whether it stands above or below them.

Molecular target: T1, BSA (UniProt P02769 25-607)
T1 construct: Negative control coating; also called BSA coating alone; BSA+wash
Test: ELISA, plate coated with BSA only, dilutions of fusion protein, anti-human IgG1 immunodetection complex, A405
Protocol: Known RAGE ligands were coated onto the surface of Maxisorb plates at a concentration of 5 micrograms per well. Plates were incubated at 4° C. overnight. Following ligand incubation, plates were aspirated and a blocking buffer of 1% BSA in 50 mM imidizole buffer (pH 7.2) was added to the plates for 1 hour at room temperature. The plates were then aspirated and/or washed with wash buffer (20 mM Imidizole, 150 mM NaCl, 0.05% Tween-20, 5 mM CaCl₂ and 5 mM MgCl₂, pH 7.2). […] The RAGE fusion protein was added at increasing dilutions of the initial sample. The RAGE fusion protein was allowed to incubate with the immobilized ligand at 37° C. for one hour after which the plate was washed and assayed for binding of the RAGE fusion protein. Binding was detected by the addition of an immunodetection complex containing a monoclonal mouse anti-human IgG1 diluted 1:11,000 to a final assay concentration (FAC) of 21 ng/100 μL, a biotinylated goat anti-mouse IgG diluted 1:500, to a FAC of […], and an avidin-linked alkaline phosphatase. […] Binding of the complex to the immobilized RAGE fusion protein was quantified by measuring conversion of PNPP to para-nitrophenol (PNP) which was measured spectrophotometrically at 405 nm.

T1 sequence (P02769 25-607 limits assumed): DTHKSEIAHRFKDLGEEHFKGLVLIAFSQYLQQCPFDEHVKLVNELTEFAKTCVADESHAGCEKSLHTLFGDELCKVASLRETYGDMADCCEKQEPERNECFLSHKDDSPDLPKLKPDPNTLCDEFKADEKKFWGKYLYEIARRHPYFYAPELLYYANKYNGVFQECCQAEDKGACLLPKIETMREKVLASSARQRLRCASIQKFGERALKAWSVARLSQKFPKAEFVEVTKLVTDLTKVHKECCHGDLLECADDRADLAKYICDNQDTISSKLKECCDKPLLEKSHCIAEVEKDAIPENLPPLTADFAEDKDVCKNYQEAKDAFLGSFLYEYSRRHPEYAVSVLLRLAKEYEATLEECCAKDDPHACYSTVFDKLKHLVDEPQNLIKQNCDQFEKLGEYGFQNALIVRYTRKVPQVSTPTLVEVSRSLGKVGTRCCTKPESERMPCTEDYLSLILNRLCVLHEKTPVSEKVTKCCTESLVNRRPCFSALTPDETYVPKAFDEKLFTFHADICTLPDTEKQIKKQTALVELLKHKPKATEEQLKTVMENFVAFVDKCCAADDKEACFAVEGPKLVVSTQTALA

binding result: no binding
B1: RAGE fusion protein TTP-4000 (Fc fusion)
chain: QNITARIGEPLVLKCKGAPKKPPQRLEWKLNTGRTEAWKVLSPQGGGPWDSVARVLPNGSLFLPAVGIQDEGIFRCQAMNRNGKETKSNYRVRVYQIPGKPEIVDSASELTAGVPNKVGTCVSEGSYPAGTLSWHLDGKPLVPNEKGVSVKEQTRRHPETGLFTLQSELMVTPARGGDPRPTFSCSFSPGLPRHRALRTAPIQPRVWEPVPLEEVQLVVEPEGGAVAPPSVFLFPPKPKDTLMISRTPEVTCVVVDVSHEDPEVKFNWYVDGVEVHNAKTKPREEQYNSTYRVVSVLTVLHQDWLNGKEYKCKVSNKALPAPIEKTISKAKGQPREPQVYTLPPSRDELTKNQVSLTCLVKGFYPSDIAVEWESNGQPENNYKTTPPVLDSDGSFFLYSKLTVDKSRWQQGNVFSCSVMHEALHNHYTQKSLSLSPGK
modifications: N-terminal residue glutamine (Q) or pyroglutamic acid (pE) or a mixture thereof; glycosylation sites at N2 and N288 (numbering of the processed protein); C-terminal residue may be cleaved off
notes: The end of the range (461) is derived from the coding length 1-1386 and from residues P459 and G460 near the terminal codon; also called TT4; four domain fusion protein

binding result: no binding
B2: RAGE fusion protein TTP-3000 (Fc fusion)
chain: QNITARIGEPLVLKCKGAPKKPPQRLEWKLNTGRTEAWKVLSPQGGGPWDSVARVLPNGSLFLPAVGIQDEGIFRCQAMNRNGKETKSNYRVRVYQIPGKPEIVDSASELTAGPSVFLFPPKPKDTLMISRTPEVTCVVVDVSHEDPEVKFNWYVDGVEVHNAKTKPREEQYNSTYRVVSVLTVLHQDWLNGKEYKCKVSNKALPAPIEKTISKAKGQPREPQVYTLPPSRDELTKNQVSLTCLVKGFYPSDIAVEWESNGQPENNYKTTPPVLDSDGSFFLYSKLTVDKSRWQQGNVFSCSVMHEALHNHYTQKSLSLSPGK
modifications: N-terminal glutamine may be cyclized to pyroglutamic acid (SEQ ID NO: 19)
notes: The range 24-346 is derived from this and from the coding length 1-1041; No characterization of the expressed TTP-3000 is reported; also called TT3; three domain fusion protein
